Data on 70 sequences can be found in the domain aggregation screens of Martell et al. (2025).
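Note: 20 min heating vs room temperature control held 20 min.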

The nature of this data set: soluble fraction after stress (log2 fold change); higher = more stays soluble; pooled small domains, quantitative proteomics. As to conditions: stress: 75 degC.
Take “HMDIPDIGHNVRIEVDGHNGKTTHEGIILHPAAPNHITIKLANGYNASYKLEEIINIEILGELGDDSKI”: the “soluble fraction (log2)” value is -0.136.
Then “HMDIPITFEQLPAKAQAFVKQYFKIEEIASVWRDDDIHDQDYKVYFNDGSEIEFYANGDWEEV”, with -0.827; and “HMDIPTSAEAVRAYLASGFIKGIGEATARMLVDKFGAETLEIIKTEPMKLTKISGIGPKKAKMIHESYLEK”, with 0.12; and “HMDIRLMPGTVLTREYQGIEHRVTVAQDGQYEFEGRRYPSLSMIAREITGTRWSGPLFFGVK”, with -1.09.
Then “HMDISEIEKRLLDFLEMPRSRKEIAEHLGIRTISYAIQTYITPLIDKKLVKMTIPESPRSHSQQYVRIN”, with -1.92; and “HMDISRMNLSQTERAVLSVLDSQPLHTEEIIASADLRAGAIHSALISLQLKGLIKQLPGNLYVK”, with -0.78.
Take “HMDITKPKISFEPGEMVRVVDGPFNDFSGVVEEVNYEKSKVRVAVLIFGRSTPVELQFNQIEK”: the “soluble fraction (log2)” value is -1.37.
Then “HMDITTIIADVPGPKTQIKVDIKNTSLHIFGGMNFKKEIDIGDNKEIINIKYINGTLTVKLKT”, with 0.231; and “HMDIVGAINKIESMKQDRYLAMHPYSITHSADGYYRTYLPADDGKRKQIKKKSKSDLEKVVIDYWTKRS”, with -0.242; and “HMDIVKVYTTARAGETLASVAKRTGVDVARLAQWNDIPLKRAKQKLKTGKALALWVQREHASAYSNAPP”, with -1.78.
Then “HMDIVQLSEKINVMKMEIPAQAIGKTVLEVNFRARFDLNIIAIENGGKLVEVIKPDYVFREGDILFLSGS”, with -3.76; and “HMDIYENIDKELSKQGKSRRKLAIAAGIPPSTFQSMMERKRGLSVENLRKIAEVLNLKWYDLL”, with -0.985.
Then “HMDIYKKFIIPATYFGSRLDHVLSELLPELSRSKIQNMIKQNLVMINGNHAAQKQKVVGDEEIIIKDI”, with -0.483; and “HMDKAALGQKLRQARLDKGYTQQSLSEKADIGEVYLSEIERGLKMPSMNLFIKLITALDISADYILR”, with -2.94; and “HMDKDTFGEFENVKLTEEEYNKLVEKLGENNTKLMIEELSTGIASKGYKYKSHYATILSWSRRRVTKLQER”, with 0.0858.
For “HMDKEIKILKEKRLDDVQQAIRELSPQKRRVVEMKLYHNSTNQEVADKLAISVNTVKSLYTSALHDLRRIL”, the “soluble fraction (log2)” value was -0.953.
Turning to “HMDKESQTMFRLLTGVSGVGPKVGLAILSVLSPDRVVLAISAGDHKAFTAASGVGPKLGQRIVLELKDKVG”, the “soluble fraction (log2)” value was -3.07.
Then “HMDKEVLYVTVNDKKVKLDGKNHIFIDIFNYIDFDIKKPNGSIVLKLNGKNAGYMDEIKDGDKIEIYWDK”, with -0.535.
Then “HMDKEVMEAVLRILYDDDFNPDQRDAILYFFVQELDQRTISEITGAKIGTVKKRIHDGLKKLRQKLAKEDL”, with -2.04; and “HMDKGEQILQQALDKLPPKQRQVFEMRYFDEMPYREIATITETSEGALKASYHHAVKKIQQYISHL”, with -0.604; and “HMDKGQRGWINLVSVPTARVIIDGYDTGHETPLYGYEVERGKRKVTLISLDGTYERTYEIRIEPGTTTRVR”, with -0.779.
“HMDKIEVVEVDMSKPYEDMTVTELQNVILDKLASNGPVTNQMKKDVSENIYHDSLVNWAKSF”: the “soluble fraction (log2)” value is -0.0122.
Regarding “HMDKIYVYTTRGQVIELPRGSTAIDFAYKIQTDIGNMIIAAIVNDKLVDANYVLHNKDRVKIVTS”, the “soluble fraction (log2)” value is -2.57.
In the case of “HMDKLNKELVSRMMDDAAWKELSKDFPWTEQLLEKYMNYVDWKEISRNYNVVWTKSLLEKFKHRLDWHE”, the “soluble fraction (log2)” value was -2.32.
The result for “HMDKMIFFKNKENNDDNQLVKIGALLIHAAKIDEDFSQEEENIIKQTLINFGAGNKNINEIIEKAKKME” reads 0.0233; that for “HMDKMVAVPNVRGIEASEAEATLIAQGLFVEVEKSDSEDANVAYGEVYAQTPKAGNRVEEGTTITIKVRTE”, -0.0615; that for “HMDKNNLHSVLQDVPGIGPKRMKELMRAFGSVEGMKKAGLEELAAVKGMNHKAAEALIQFFR”, 0.163.
For “HMDKQGGWLTMAEAAEKLGVTHHVIRRLIKEKILPAEQVMRHAPHQIRIVDLESDAVAEALRHR”, the “soluble fraction (log2)” value was -0.356.
Then “HMDKVVGSAGDVTSRITANSGEVKIDGQIWQARSYDETIAIEAGEKIEVFDLDGITLIVYPI”, with -0.833; and “HMDLAENWKDDADITLAEYNAIRSRYKPGKLHRDTEFMIARDMLIRPETVLAIAHSRFSNVHTHPV”, with -0.787; and “HMDLDEELDFLSDADESATKLDLARAYIDMGDKDGARDILAEVLEEGRSEQKREAQALLDSI”, with 0.249.
“HMDLDPVEKLHLLSQLYVGQLKGSFVVKEKNQKTTIIGEVRELSHQTLSIRTNEGYRLIEVADILEIRLWE”: the “soluble fraction (log2)” value was -0.216.
Turning to “HMDLDYSGIMNVLNQKYHITFYNNKKIQNLMPKLMIIMGYNSIINEIGHSKSLKALINSFEEKLKSYILT”, the “soluble fraction (log2)” value is -3.19.
The result for “HMDLEGLSNKELVTLRGQIQDDLNKWATEVGIIDPKNRPDDYNRALQSLEDAKRQRSAIDAKL” reads 0.0844; that for “HMDLEIENYDLREILNLFKLDYNFDNVDLKRAQKIALKTHPDKSNLPKEYFMFFMKAFQIVQQIYYYRY”, -0.441; that for “HMDLFREERRQAILDWLATAGRVSVAELSASFGVSEVTVRADLQALADRRLVVRTHGGAMMAG”, -2.1.
With “HMDLHSQVFESYERKIREVLREGPLTFEEILHAFALKRHETVAQVITYLMDEGKMSDSGDGKLIYSG”, the “soluble fraction (log2)” value is -0.86.
With “HMDLIISDIRMPEMRGDDFLEWIKANELFKHIPVIMLSSEDSTTERIRLLEIGAEDYIVKPFNPMELKIR”, the “soluble fraction (log2)” value was -0.495.
Then “HMDLLIFSPSLGQHVRDLKRVIDRLHQHGIPVRWQKAKLLREEIEYIGWTWKSGGLIDPTNV”, with -0.672; and “HMDLMSTNEKLLYTMRYLISKSLDGAITEEEIRRLDRLIIENSQARAYYVEYLQIHTHLRKLMQQNPELK”, with -2.39; and “HMDLRIIKTKKAIKTAFLNLLKENKYHNITISAISETALINRKTFYAHYETKDELYADVIEDALRVLSP”, with 0.114.
“HMDLRIKEIMSERNVTSAWLAEKVGISKVAVSNIVTGKSSPSLDNLLKIADALNVSITTLIG”: the “soluble fraction (log2)” value was -2.6.
Then “HMDLRYKVQYNFIDQGMMTKDELLKFSLNQDDVSKIAVFDNDSKQWKEIYAITEISEKLGIS”, with -0.452.
In the case of “HMDLTIEQTTVLGKRLFSNALNSLGKKQRNIKKDAIESLLKRMNLKDMDQLYESIGIGDKSPLLMAQILL”, the “soluble fraction (log2)” value was -0.156.
For “HMDLVIALNSRIRVIREPFFGKLGTVIDLPHKLHKMESGTMTRVAKIKFDDRTEEIIPRTNLEVILS”, the “soluble fraction (log2)” value is -3.54.
As for “HMDLYEILGVRRGAGGGEIRRAYRRLARRYHPDVNPGDREAQARYALITRAFETLNDPERRRAYDAGVP”, the “soluble fraction (log2)” value was -0.817.
With “HMDMAENEEYKVIMGQAQQLAEQFFPADDNTRRIMLGQLKLENYSLYLLTKQILDEATKGQAAAAN”, the “soluble fraction (log2)” value was -0.264.
In the case of “HMDNFDVVLTSPGDQKVQVIKAVRSITGLGLKEAKDLVDGAPNTVKEGVKKLDAEEMLKQLTEAGATGEL”, the “soluble fraction (log2)” value turned out to be 0.35.
In the case of “HMDNFQFIGYSQQQGQIAVAWIKSLDNGRLVRVEVSDSLEGWRVSDISAQGVNLTKGQQWLMLKRL”, the “soluble fraction (log2)” value is -1.74.
With “HMDNIGKTLGQNQTRQYKVAYAEAAKLPAIIMGLVPLPKPPVVDERLRSLYVTATPEQHRQIETLMNRI”, the “soluble fraction (log2)” value is -0.114.
Then “HMDNITIYSSNGKIYVNAIGGEKIELFNITGQKVAEKVAVSGINVLDAVYDITLVKVGSKVVKVV”, with -2.36; and “HMDNLATRILKELNNNDGFLPLSDKSQPEAIYQAFGISKKSYKTAIGTLYKKRLITISENGIQLTD”, with -0.67.
The result for “HMDNLSQMQERILEFIIRSKDQSGYTPSLREIGDEVGLKAVSSVKYQLEQLKDAHYISFDANTARAIRVLI” reads -1.68.
“HMDNMFVEERQALIYEELQSNGRVRVKDLSKKFNVSEDLIRKDLNVLEKEGKLRKIYGGAVLAK”: the “soluble fraction (log2)” value turned out to be 0.237.
Take “HMDNNNQAAFMGALNSLKEYAKVNGNIVTKQDVESYFKDLGLDDSKYQMITGYLLANDITVKG”: the “soluble fraction (log2)” value was determined as 0.181.
The result for “HMDNQYGVYSDEKNNVEIHWKRIDHPSVAKDHLDIEAYQNGKRVDINNQQADHYRYLINQEMNE” reads 0.201; that for “HMDPAFAQHHDRALSILHSRGYEVHDSDTDLHWARPVLEFEAYKGSLEYKIVMSYPDLNIIEERVD”, -0.906; that for “HMDPASYEARLSTLREQGAQQLDPVRFQYLATLAQRLPTQTPGVALILANKLRAGLSDYEQRLSEAGS”, -0.0569.
“HMDPDAIVSKGQLGALNNAIGRFIAQGGSQTVVDKGIAKRNPNAKKPADLTNSQAESLEAAILKILNG”: the “soluble fraction (log2)” value is 0.73.
Turning to “HMDPLGALSDRERQVLALIGQGHGLQAIADQLGVSYKTAANTSSALKKKLGVDGINGLMKFALDSG”, the “soluble fraction (log2)” value was -0.443.
With “HMDPLGGFTKGDVDMDGRVAVNDAVMVLKNAIKLMELDTQQLMLADADNDGKITVNDAVMILKKAIKLID”, the “soluble fraction (log2)” value was -0.149.
In the case of “HMDPTLFRLNILEGLGLEKKNLTSEEQEQLRFLYEHFSMKEILMTIDYIKKLNLEKSIVNLYRLMQHP”, the “soluble fraction (log2)” value is -0.823.
Then “HMDPTVEENKLNPRDLLIIQRVKEGRTNKEIAEELNVAEITVKKQLSSLYQRYKVHNRNQLLLALD”, with -0.285.
For the sequence “HMDPVQLEVIKKLNLLNAQKPKDIYALRDVLSEMFPQSDIRLLLKELLDKGYIYWNGHEVIYSHEMF”, the “soluble fraction (log2)” value is -0.272.
Turning to “HMDPYEYQLELEKLINNATELNKKYNYDPLKDKILAADAVKNSLETYVLQNYIVALENEIKQTLNQYQIL”, the “soluble fraction (log2)” value was -0.685.
Then “HMDQNDYMLTRIRNGQMRNKVSVSMPASKIKSAIAAVLKDEGYIENFALNDSSGKPSLIVNLKYYAGQPV”, with -0.0681; and “HMDQPVIDVREFGARGDGKQDDAPAIQAAVRLAEQLGGGRVVVPATREFYLLGSTIRIRGHHVTLTGPGAR”, with 0.0456; and “HMDRAIAAHLEARVRDALKQLSPEQTRVIELFFFDNKTHAEIENDLKIPLGTVKSRLRLALNKLRASL”, with -2.55.
“HMDRASGEEEALKEAEDAISRVWEFDGPVELNPQNSYLRRLQHELASRYNVKSVSIGQEPNRRVVYYK”: the “soluble fraction (log2)” value is -0.163.
Regarding “HMDRDPAEAGYDDGYLSGNTDGMNNDERATYDESSQYPTPDERQSYAAAYRRGYAAGFADGRKQAV”, the “soluble fraction (log2)” value was -0.000174.
